Assay results reported in patent publication US20220177569A1 (Novartis, published 2022).

Experiments:
Recombinant human IL-1β [1] = target: T1, Recombinant human IL-1β (human, UniProt P01584 117-269); assay: cell-based or functional assay
Recombinant human IL-1β [2] = target: T1, Recombinant human IL-1β; assay: cell-based or functional assay; remark: listed apart in the source
[3] = target: T2, Recombinant marmoset IL-1β (marmoset, UniProt U3E018 117-268); assay: cell-based or functional assay
Recombinant human IL-1β [4] = target: T1, Recombinant human IL-1β; assay: SET (solution equilibrium titration, MSD ECL), individual target binding
Protocol: (§1) The plate was blocked with 50 μl/well blocking buffer (PBS containing 5% BSA) for 1 hour (h), at room temperature (RT). After washing (TBST, TBS containing 0.05% Tween 20), a volume of 30 μl/well of the equilibrated antigen- antibody mix was transferred from the polypropylene MTP to the coated MSD plate and incubated for 20 min at RT. After an additional wash step, 30 μl sulfo tag-labeled anti-IgG detection antibody (0.5 μg/ml) diluted in sample buffer were added to each well and incubated for 30 min at RT on a shaker. The MSD plate was washed and 35 μl/well MSD read buffer were added and incubated for 5 min at RT. Electrochemiluminescence (ECL) signals were generated and measured by the MSD Sector Imager 6000.

[5] = target: T2, Recombinant marmoset IL-1β; assay: as above
Protocol: as §1

Recombinant human IL-1β [6] = target: T1, Recombinant human IL-1β; assay: SET, simultaneous target binding, Assay A (excess of the other target, IL-18)
Protocol: as §1
(§2) Assay B: The equilibration process (antibody/antigen mix) was performed with both targets in serial dilutions in one mix simultaneously (constant concentration of antibody […], highest antigen conc. see above). The same mix was then analyzed for its free antibody concentration on IL18 and IL-1β coated plates as described above.

[7] = target: T2, Recombinant marmoset IL-1β; assay: as above
Protocol: as §1, §2

Recombinant human IL-18 [8] = target: T3, Recombinant human IL-18 (human, UniProt Q14116 37-193); assay: SET, simultaneous target binding, Assay B (both targets in serial dilutions in one mix)
T3 construct: also called huIL-18; hulL-18
Protocol: as §1, §2

Recombinant human IL-1β [9] = target: T1, Recombinant human IL-1β; assay: as above
Protocol: as §1, §2

[10] = target: T2, Recombinant marmoset IL-1β; assay: as above
Protocol: as §1, §2

Recombinant human IL-18 [11] = target: T3, Recombinant human IL-18; assay: cell-based or functional assay
Recombinant human IL-18 [12] = target: T3, Recombinant human IL-18; assay: cell-based or functional assay; remark: listed apart in the source
[13] = target: T4, Recombinant marmoset IL-18 (marmoset, UniProt U3CWC9 37-190); assay: cell-based or functional assay
T4 sequence: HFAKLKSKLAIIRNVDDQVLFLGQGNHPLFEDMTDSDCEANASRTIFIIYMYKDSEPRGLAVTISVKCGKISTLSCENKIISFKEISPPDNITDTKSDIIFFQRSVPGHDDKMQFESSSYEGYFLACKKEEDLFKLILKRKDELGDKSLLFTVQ

Recombinant human IL-18 [14] = target: T3, Recombinant human IL-18; assay: SET (solution equilibrium titration, MSD ECL), individual target binding
Protocol: as §1

[15] = target: T4, Recombinant marmoset IL-18; assay: as above
Protocol: as §1

Recombinant human IL-18 [16] = target: T3, Recombinant human IL-18; assay: SET, simultaneous target binding, Assay A (excess of the other target, IL-1β)
Protocol: as §1, §2

[17] = target: T4, Recombinant marmoset IL-18; assay: as above
Protocol: as §1, §2

[18] = target: T4, Recombinant marmoset IL-18; assay: SET, simultaneous target binding, Assay B (both targets in serial dilutions in one mix)
Protocol: as §1, §2

B1: mAb2 (IL-1β antibody) (antibody, human IgG1, kappa, V domains shown)
VH: QVQLVESGGGVVQPGRSLRLSCAASGFTFSVYGMNWVRQAPGKGLEWVAIIWYDGDNQYYADSVKGRFTISRDNSKNTLYLQMNGLRAEDTAVYYCARDLRTGPFDYWGQGTLVTVSS
VL: EIVLTQSPDFQSVTPKEKVTITCRASQSIGSSLHWYQQKPDQSPKLLIKYASQSFSGVPSRFSGSGSGTDFTLTINSLEAEDAAAYYCHQSSSLPFTFGPGTKVDIKR
IL-6 prod. PBMC IC50 (human PBMC stimulated with 60 pM recombinant human IL-1β) (Recombinant human IL-1β [1]): 0.29 nM
IL-6 prod. derm. fibrobl. IC50 (human dermal fibroblasts stimulated with 6 pM recombinant human IL-1β) (Recombinant human IL-1β [1]): 31 pM
Inhibition of SEAP in HEK reporter cells stimulated simultaneously with IL-1β and IL-18, IC50; mAb2 alone (Recombinant human IL-1β [2]): 30 nM
Inhibition of SEAP in HEK reporter cells stimulated simultaneously with IL-1β and IL-18, IC50; mAb2 and mAb1 combined (Recombinant human IL-1β [2]): 0.24 nM
IL-6 prod. dermal fibroblasts IC50, Exp. B (18 pM recombinant marmoset IL-1β; marmoset cells by the reading of the header) [3]: 0.138 nM
IL-6 prod. dermal fibroblasts IC50, Exp. C (18 pM recombinant marmoset IL-1β; human cells by the reading of the header) [3]: 0.114 nM
IL-6 prod. marmoset dermal fibroblasts IC50, Exp. A (18 pM recombinant marmoset IL-1β) [3]: 95 pM
Kd (Recombinant human IL-1β [4]): 0.0006 nM
Kd [5]: 0.001 nM
Kd (Recombinant human IL-1β [6]): 0.0011 nM
Kd [7]: 0.0008 nM
binding result (Recombinant human IL-18 [8]): no binding (tested: highest antigen conc. huIL-18 5 nM)
Kd (Recombinant human IL-1β [9]): 0.0032 nM
Kd [10]: 0.0048 nM

B2: mAb1 (IL-18 antibody) (antibody, human IgG1, lambda, L234A L235A, V domains shown)
VH: EVQLVQSGAEVKKPGSSVKVSCKASGGTFKSYAISWVRQAPGQGLEWMGNIIPMTGQTYYAQKFQGRVTITADESTSTAYMELSSLRSEDTAVYYCARAAYHPLVFDNWGQGTLVTVSS
VL: DIVLTQPPSVSGAPGQRVTISCSGSSSNIGNHYVNWYQQLPGTAPKLLIYRNNHRPSGVPDRFSGSKSGTSASLAITGLQSEDEADYYCQSWDYSGFSTVFGGGTKLTVLG
IFNγ prod. KG-1 cells IC50 (3 nM recombinant human IL-18 and 1 ng/ml human IL-12) (Recombinant human IL-18 [11]): 0.035 nM
IFNγ prod. PBMC IC50 (3 nM recombinant human IL-18 and 1 ng/ml human IL-12) (Recombinant human IL-18 [11]): 0.78 nM
Inhibition of SEAP in HEK reporter cells stimulated simultaneously with IL-1β and IL-18, IC50; mAb1 alone (Recombinant human IL-18 [12]): > 30 nM
Inhibition of SEAP in HEK reporter cells stimulated simultaneously with IL-1β and IL-18, IC50; mAb2 and mAb1 combined (Recombinant human IL-18 [12]): 0.24 nM
IFNγ prod. Human PBMC IC50 (marmoset IL-18 1 nM and human IL-12 10 ng/ml) [13]: 6.6 nM
IFNγ prod. Marmoset blood IC50 (marmoset IL-18 0.3 nM and human IL-12 10 ng/ml) [13]: 4.7 nM
IFNγ prod. Marmoset blood IC50 (marmoset IL-18 3 nM and human IL-12 10 ng/ml) [13]: 181 nM
Kd (Recombinant human IL-18 [14]): 0.009 nM
Kd [15]: 0.021 nM
Kd (Recombinant human IL-18 [16]): 0.0135 nM
Kd [17]: 0.0271 nM
Kd (Recombinant human IL-18 [8]): 0.0114 nM
Kd [18]: 0.0263 nM
binding result (Recombinant human IL-1β [9]): no binding (tested: highest antigen conc. huIL-1β 0.5 nM)
binding result [10]: no binding (tested: highest antigen conc. marIL-1β 0.5 nM)
